This passage reports IC50 results from article PMC4650713 (2015).

The target in this experiment is BaxΔC21 (UniProt Q07812 1-171, C62S | C126S). The experiment can be described thus: SPR.
BaxΔC21, sequence (Q07812 1-171 C62S/C126S): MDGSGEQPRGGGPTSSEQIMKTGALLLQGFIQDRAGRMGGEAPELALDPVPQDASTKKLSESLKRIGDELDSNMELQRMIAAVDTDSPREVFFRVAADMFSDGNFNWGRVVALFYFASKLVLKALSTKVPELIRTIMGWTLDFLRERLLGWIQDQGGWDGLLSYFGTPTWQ

SESQEDIIRNIARHLAQVGDSMDRSIPPGLVNGL [BidBH3 peptide] came in with an IC50 of 306 nM.
The figure for SESQEDIIRNIARHLRQVGDSMDRSIPPGLVNGL [BidBH3 A91R] is 41 nM.
